Consider one molecule from PMC9834252 (2023).

The assay concerns the target UbcH7-Ub (Homo sapiens, UniProt P68036). The assay is described as follows: ITC.

Sequence of UbcH7-Ub (P68036 whole entry): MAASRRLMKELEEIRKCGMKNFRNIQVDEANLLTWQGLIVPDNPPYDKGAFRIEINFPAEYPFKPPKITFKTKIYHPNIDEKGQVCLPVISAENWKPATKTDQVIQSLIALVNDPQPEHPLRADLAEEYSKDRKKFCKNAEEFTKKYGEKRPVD

B1: HOIL-1 (protein)
chain: MDEKTKKAEEMALSLTRAVAGGDEQVAMKCAIWLAEQRVPLSVQLKPEVSPTQDIRLWVSVEDAQMHTVTIWLTVRPDMTVASLKDMVFLDYGFPPVLQQWVIGQRLARDQETLHSHGVRQNGDSAYLYLLSARNTSLNPQELQRERQLRMLEDLGFKDLTLQPRGPLEPGPPKPGVPQEPGRGQPDAVPEPPPVGWQCPGCTFINKPTRPGCEMCCRARPEAYQVPASYQPDEEERARLAGEEEALRQYQQRKQQQQEGNYLQHVQLDQRSLVLNTEPAECPVCYSVLAPGEAVVLRECLHTFCRECLQGTIRNSQEAEVSCPFIDNTYSCSGKLLEREIKALLTPEDYQRFLDLGISIAENRSAFSYHCKTPDCKGWCFFEDDVNEFTCPVCFHVNCLLCKAIHEQMNCKEYQEDLALRAQNDVAARQTTEMLKVMLQQGEAMRCPQCQIVVQKKDGCDWIRCTVCHTEICWVTKGPRWGPGGPGDTSGGCRCRVNGIPCHPSCQNCH
With B1, the Kd (usually the constant that tells how readily two partners part at equilibrium) was 5.3 µM. This lies in the single-digit micromolar range.
